From paper PMC4888466

How the values were obtained:
Assay in all cases: purified protein
Format in all cases: biochemical, Caenorhabditis elegans
[1] = test system: Nc1nc2c(ncn2[C@@H]2O[C@H](COP(=O)(O)OP(=O)(O)OP(=O)(O)O)[C@@H](O)[C@H]2O)c(=O)[nH]1; settings: 1 mM Man-1-P, 5 mM MgCl2, pH 7.5, 25°C
[2] = test system: O=P(O)(O)O[C@H]1O[C@H](CO)[C@@H](O)[C@H](O)[C@H]1O; settings: 1 mM GTP, 5 mM MgCl2, pH 7.5, 25°C
[3] = test system: O=P(O)(O)O[C@H]1O[C@H](CO)[C@@H](O)[C@H](O)[C@@H]1O; settings: 1 mM GTP, 5 mM MgCl2, pH 7.5, 25°C

GMP-1 (Caenorhabditis elegans)
Km [1]: 16.04 ± 1.68 µM | kcat [1]: 29.1 ± 0.58 s⁻¹ | kcat/Km [1]: 1.81e+06 ± 190000 M⁻¹ s⁻¹ | Km [2]: 508.90 ± 118.40 µM | kcat [2]: 33.1 ± 2.9 s⁻¹ | kcat/Km [2]: 65000 ± 16000 M⁻¹ s⁻¹ | Km [3]: 18.49 ± 2.14 µM | kcat [3]: 30.3 ± 0.69 s⁻¹ | kcat/Km [3]: 1.64e+06 ± 190000 M⁻¹ s⁻¹
